Results published in article PMC11160874 (2024).

Legend:
[1] = molecular target: T1, microtubule (alpha/beta-tubulin, taxol-stabilized) (Sus scrofa, UniProt P02550); test: TIRF microscopy, 150 mM salt
T1 chain 1: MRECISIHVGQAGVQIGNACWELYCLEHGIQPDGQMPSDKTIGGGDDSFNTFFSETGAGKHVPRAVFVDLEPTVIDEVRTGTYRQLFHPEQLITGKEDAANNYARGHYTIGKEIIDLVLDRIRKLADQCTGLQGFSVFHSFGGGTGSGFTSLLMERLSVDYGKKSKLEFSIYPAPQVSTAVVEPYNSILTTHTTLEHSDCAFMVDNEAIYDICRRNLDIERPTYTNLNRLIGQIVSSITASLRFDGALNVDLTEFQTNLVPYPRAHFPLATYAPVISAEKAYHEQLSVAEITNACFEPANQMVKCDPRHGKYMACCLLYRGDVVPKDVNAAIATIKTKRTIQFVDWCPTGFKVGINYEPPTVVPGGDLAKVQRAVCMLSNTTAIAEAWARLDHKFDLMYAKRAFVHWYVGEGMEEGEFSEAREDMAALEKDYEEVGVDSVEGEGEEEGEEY
T1 chain 2: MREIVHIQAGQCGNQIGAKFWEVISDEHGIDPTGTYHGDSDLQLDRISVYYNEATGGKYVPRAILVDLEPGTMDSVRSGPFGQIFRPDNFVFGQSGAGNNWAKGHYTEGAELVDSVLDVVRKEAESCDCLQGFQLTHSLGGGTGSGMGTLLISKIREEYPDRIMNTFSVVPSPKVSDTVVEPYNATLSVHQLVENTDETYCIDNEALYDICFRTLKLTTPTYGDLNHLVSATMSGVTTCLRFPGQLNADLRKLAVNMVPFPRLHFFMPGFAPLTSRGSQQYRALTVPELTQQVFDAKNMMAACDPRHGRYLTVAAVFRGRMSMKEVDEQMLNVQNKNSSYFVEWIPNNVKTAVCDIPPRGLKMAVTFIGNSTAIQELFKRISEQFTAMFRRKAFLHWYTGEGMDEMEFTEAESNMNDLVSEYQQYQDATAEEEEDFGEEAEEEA

[2] = molecular target: T1, microtubule (alpha/beta-tubulin, …); test: TIRF microscopy, no added salt

- Kd [1]: ~600 nM
- Kd [2]: ~33 nM
B1: HURP 1-285 (protein)
chain: MSSSHFASRHRKDISTEMIRTKIAHRKSLSQKENRHKEYERNRHFGLKDVNIPTLEGRILVELDETSQGLVPEKTNVKPRAMKTILGDQRKQMLQKYKEEKQLQKLKEQREKAKRGIFKVGRYRPDMPCFLLSNQNAVKAEPKKAIPSSVRITRSKAKDQMEQTKIDNESDVRAIRPGPRQTSEKKVSDKEKKVVQPVMPTSLRMTRSATQAAKQVPRTVSSTTARKPVTRAANENEPEGKVPSKGRPAKNVETKPDKGISCKVDSEENTLNSQTNATSGMNPDG
modifications: C-terminal eGFP, taxol-stabilized microtubules
